Tests used:
Assay in all cases: SEC
[1] = target: VARC 87–291 of PfEMP1 (PF08_0141) (P. falciparum 3D7)
[2] = target: Full-length cytoplasmic C-terminal domain (VARC 1–392) of PfEMP1 (PF08_0141), unphosphorylated (P. falciparum 3D7)
[3] = target: VARC 1–291 of PfEMP1 (PF08_0141) (P. falciparum 3D7)
[4] = target: VARC 87–392 of PfEMP1 (PF08_0141) (P. falciparum 3D7)

Substance: VARC 87–291 of PfEMP1 (PF08_0141) (domain or fragment)
- stoichiometry N [1]: 2

Substance: Full-length cytoplasmic C-terminal domain (VARC 1–392) of PfEMP1 (PF08_0141), unphosphorylated (domain or fragment)
- stoichiometry N [2]: 2

Substance: VARC 1–291 of PfEMP1 (PF08_0141) (domain or fragment)
- stoichiometry N [3]: 2

Substance: VARC 87–392 of PfEMP1 (PF08_0141) (domain or fragment)
- stoichiometry N [4]: 2
